Assay results as given in FireProtDB (doi:10.3390/ijms21030752).

B1: Guanylyl cyclase-activating protein 1, P43080 (parent)
chain: MGNVMEGKSVEELSSTECHQWYKKFMTECPSGQLTLYEFRQFFGLKNLSPSASQYVEQMFETFDFNKDGYIDFMEYVAALSLVLKGKVEQKLRWYFKLYDVDGNGCIDRDELLTIIQAIRAINPCSDTTMTAEEFTDTVFSKIDVNGDGELSLEEFIEGVQKDQMLLDTLTRSLDLTRIVRRLQNGEQDEEGADEAAEAAG

Variants of: B1
Conditions: Homo sapiens, pH 7.5, Thermal, CD, Tris-HCl 20mM, whole UniProt chain shown

Question: What does the source list for G86R?
Answer: Tm (KCL 150 mM): 41.6 °C; change of melting temperature, mutant - wild type (higher = more stable) (KCL 150 mM): -8.2 °C; Tm (KCL and Mg2+ 150 mM and 1 mM): 46.8 °C; change of melting temperature, mutant - wild type (higher = more stable) (KCL and Mg2+ 150 mM and 1 mM): -3.5 °C

Question: With G86R W94L as the variant, how does the Tm (KCL 150 mM) read?
Answer: 42 °C

Question: And the “change of melting temperature, mutant - wild type (higher = more stable)” value (from here on “change of melting temperature, mutant”) (KCL 150 mM)?
Answer: -7.8 °C

Question: And the Tm (KCL and Mg2+ 150 mM and 1 mM)?
Answer: 47 °C

Question: And the “change of melting temperature, mutant” value (KCL and Mg2+ 150 mM and 1 mM)?
Answer: -3.3 °C

Question: For G86R W94F, which Tm (KCL 150 mM) is on record?
Answer: 40.6 °C

Question: What about the “change of melting temperature, mutant” value (KCL 150 mM) of the same variant?
Answer: -9.2 °C

Question: And the Tm (KCL and Mg2+ 150 mM and 1 mM)?
Answer: 47.8 °C

Question: What about the “change of melting temperature, mutant” value (KCL and Mg2+ 150 mM and 1 mM) of the same variant?
Answer: -2.5 °C
